From patent US20010041670A1 (published 2001) come the findings set out here.

The target of test [1] is T1, Thrombospondin-1 (TSP-1) (human, UniProt P07996 19-1170).
T1 construct: mature; Native protein from human platelet releasate. 'Mature' is inferred from that source
Kind of test: solid phase competition: 125I-TSP-1 binding to immobilized HRGP.
Description: Solid phase binding assays were performed as described (18). […] Non-specific binding was determined by carrying out binding in the presence of excess unlabeled ligand.

Test [2] addresses T1, Thrombospondin-1 (TSP-1). Kind of test: cell-based or functional assay.

T1 sequence (P07996 19-1170): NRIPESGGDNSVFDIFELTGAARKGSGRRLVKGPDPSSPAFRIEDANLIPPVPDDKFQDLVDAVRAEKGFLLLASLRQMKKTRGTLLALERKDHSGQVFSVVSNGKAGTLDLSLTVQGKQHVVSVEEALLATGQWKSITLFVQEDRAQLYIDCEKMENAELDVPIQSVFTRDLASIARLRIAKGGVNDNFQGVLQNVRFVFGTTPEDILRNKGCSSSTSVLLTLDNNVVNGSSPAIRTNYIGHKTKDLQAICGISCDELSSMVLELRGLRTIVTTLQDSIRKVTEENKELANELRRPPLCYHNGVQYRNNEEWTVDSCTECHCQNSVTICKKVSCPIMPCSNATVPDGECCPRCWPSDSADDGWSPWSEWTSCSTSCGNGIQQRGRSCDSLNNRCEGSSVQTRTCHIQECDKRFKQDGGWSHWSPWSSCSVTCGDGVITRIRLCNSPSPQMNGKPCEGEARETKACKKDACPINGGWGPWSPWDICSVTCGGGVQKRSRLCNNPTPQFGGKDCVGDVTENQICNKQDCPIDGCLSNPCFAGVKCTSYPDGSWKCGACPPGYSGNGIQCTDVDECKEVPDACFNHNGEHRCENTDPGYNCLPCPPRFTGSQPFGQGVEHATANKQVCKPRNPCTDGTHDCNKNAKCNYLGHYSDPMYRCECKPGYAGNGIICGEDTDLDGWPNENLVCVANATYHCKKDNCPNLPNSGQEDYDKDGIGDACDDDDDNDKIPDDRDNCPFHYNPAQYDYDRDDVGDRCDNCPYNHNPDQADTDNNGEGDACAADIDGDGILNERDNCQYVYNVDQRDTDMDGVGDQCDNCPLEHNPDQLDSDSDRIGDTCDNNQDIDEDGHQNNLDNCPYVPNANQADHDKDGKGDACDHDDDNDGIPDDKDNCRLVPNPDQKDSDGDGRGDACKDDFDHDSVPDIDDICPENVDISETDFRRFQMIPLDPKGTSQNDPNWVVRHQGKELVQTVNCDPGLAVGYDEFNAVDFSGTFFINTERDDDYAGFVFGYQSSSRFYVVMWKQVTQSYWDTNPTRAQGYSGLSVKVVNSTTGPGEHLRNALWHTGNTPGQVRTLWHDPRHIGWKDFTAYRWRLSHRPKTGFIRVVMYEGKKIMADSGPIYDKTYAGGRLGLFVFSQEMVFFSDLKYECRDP

B1: CD36 FP298-439 (other, UniProt P16671 298-439, looked up)
chain: KAFASPVENPDNYCFCTEKIISKNCTSYGVLDISKCKEGRPVYISLPHFLYASPDVSEPIDGLNPNEEEHRTYLDIEPITGFTLQFAKRLQVNLLVKPSEKIQVLKNLKRNYIVPILWLNETGTIGDEKANMFRSQVTGKIN
notes: also called GST-CD36 fusion protein; not shown: Glutathione-S-transferase fusion partner
Take B1: the binding result in the test with Thrombospondin-1 (TSP-1) [1] is “no binding”.

B2: Histidine-rich glycoprotein (HRGP) (other, human, UniProt P04196 19-525, looked up)
chain: VSPTDCSAVEPEAEKALDLINKRRRDGYLFQLLRIADAHLDRVENTTVYYLVLDVQESDCSVLSRKYWNDCEPPDSRRPSEIVIGQCKVIATRHSHESQDLRVIDFNCTTSSVSSALANTKDSPVLIDFFEDTERYRKQANKALEKYKEENDDFASFRVDRIERVARVRGGEGTGYFVDFSVRNCPRHHFPRHPNVFGFCRADLFYDVEALDLESPKNLVINCEVFDPQEHENINGVPPHLGHPFHWGGHERSSTTKPPFKPHGSRDHHHPHKPHEHGPPPPPDERDHSHGPPLPQGPPPLLPMSCSSCQHATFGTNGAQRHSHNNNSSDLHPHKHHSHEQHPHGHHPHAHHPHEHDTHRQHPHGHHPHGHHPHGHHPHGHHPHGHHPHCHDFQDYGPCDPPPHNQGHCCHGHGPPPGHLRRRGPGKGPRPFHCRQIGSVYRLPPLRKGEVLPLPEANFPSFPLPHHKHPLKPDNQPFPQSVSESCPGKFKSGFPQVSMFFTHTFPK
On to B2, for which the “area of neovascularization relative to bFGF alone, corneal assay, pellets with bFGF, TSP-1 and HRGP (100 ng, HRGP:TSP-1 molar ratio 3:1)” value in the test with Thrombospondin-1 (TSP-1) [2] stood at 82.5%.
